Measurements as given in patent publication US9951335B2, “Compositions and methods for treating otitis media and other conditions with inhibitors of CYLD” (Georgia State University Research Foundation, Inc., priority 2012, dated 2018).

What was measured:
PAI-1 = assay: TGF-β-induced PAI-1 expression (promoter activity, mRNA) in human cells; type: cell-based; settings: A549 and HeLa cells
Experimental: Total RNA was isolated using TRIzol reagent following the manufacturer's instructions. Synthesis of complementary DNA from total RNA was performed with MultiScribe reverse transcriptase. Real-time quantitative PCR was performed using an ABI 7500 Sequence Detection System (Applied Biosystems). Relative quantities of mRNAs were calculated using the comparative threshold cycle method and normalized using human and mouse glyceraldehyde-3-phosphate dehydrogenase as an endogenous control. The primer sequences for mouse COL1A2, COL3A1, CTGF and PAI-1, and human PAI-1, CHIP, and Smad3 are as follows. Mouse CTGF: 5′-[…]-3′ (SEQ ID NO:1) and 5′-[…]-3′ (SEQ ID NO:2); mouse COL1A2: 5′-[…]-3′ (SEQ ID NO:3) and 5′-[…]-3′ (SEQ ID NO:4); mouse COL3A1: 5′-[…]-3′ (SEQ ID NO:5) and 5′-[…]-3′ (SEQ ID NO:6); mouse PAI-1: 5′-[…]-3′ (SEQ ID NO:7) and 5′-[…]-3′ (SEQ ID NO:8); human PAI-1: 5′-[…]-3′ (SEQ ID NO:9) and 5′-[…]-3′ (SEQ ID NO:10); human CHIP: 5′-[…]-3′ (SEQ ID NO:11) and 5′-[…]-3′ (SEQ ID NO:12).
(§1) The expression plasmids Flag-WT-CYLD, HA-WT-CYLD, Flag-H/N-CYLD, HA-C/S-CYLD, Flag-WT-Smad3, C/A-TβRI, and the reporter plasmids SBE-Luc, PAI-1-Luc, and NF-κB-Luc were previously described. Flag-WT-Akt1, pRK5-HA-Ub WT, pRK5-HA-Ub K63, and pRK5-HA-Ub K48 were from Addgene, and K to R mutants of Akt were generated with WT-Akt1 using QuickChange XL Site-Directed Mutagenesis kit (Stratagene). All transient transfections were carried out using TransIT-LT1 reagent (Minis) or Lipofectamine (Invitrogen) according to manufacturers' instructions.

TGF-β-signalling = assay: SBE-Luc activity in TβR-deficient DR26 and R1B cells; type: cell-based, mink
Description: Having identified CYLD as a negative regulator of TGF-β-signalling and lung fibrosis, we next sought to determine how CYLD inhibits TGF-β-signalling. TGF-β-ligands bind to a type II receptor (TβRII), which recruits and phosphorylates a type I receptor (TβRI). The activated TβRI then phosphorylates the Smad subgroup known as receptor-activated Smads (R-Smad), for example, Smad3, which can bind to Co-Smad Smad4. The R-Smad and Co-Smad complex then undergoes nuclear translocation for target gene regulation. To first determine at which level CYLD inhibits TGF-β-signalling, we took advantage of the available lung epithelial cell lines, DR26 and R1B that are derived from the WT Mv1Lu cells and lack functional […] TβRI, respectively. […] We next determined whether CYLD exerts its inhibitory effect on TGF-β-signalling at the level or downstream of TβRI by assessing the effects of siCYLD on WT-Smad3-induced SBE-Luc activity in TβRI-deficient R1B cells. […] To further determine whether CYLD inhibits TGF-β-signalling by likely targeting Smad3, we next evaluated the effect of CYLD knockdown in Smad3-deficient MEF cells.
A549, HeLa and HEK293 cells were maintained in the F12-K, minimal essential medium Eagle's with Earle's balanced salt solution (EMEM), and DMEM […]. […]

Akt = Akt ubiquitination in cells (immunoprecipitation, immunoblotting); type: cell-based, human; settings: epithelial cells
Experimental: Western blot, immunoprecipitation and ubiquitination experiments were performed as follows. Western blots were performed using whole-cell extracts, separated on 8 or 10% SDS-PAGE gels, and transferred to polyvinylidine di& uoride membranes. The membrane was blocked with a solution of PBS containing 0.1% Tween 20 (PBS-T) and 5% BSA. The membrane was then incubated in a 1:2,000 dilution of a primary antibody in 5% BSA-PBS-T. After three washes in PBS-T, the membrane was incubated with 1:5,000 dilution of the corresponding secondary antibody in 3% non-fact skim milk-PBS-T. Respective proteins were visualized by using enhanced chemiluminescence detection reagents, according to the manufacturer's instructions. To conduct immunoprecipitation analysis, cell lysates were incubated with 1 μg of primary antibodies overnight, at 4° C., followed by 2-h incubation with protein A/G-agarose beads (Invitrogen). Immunoprecipitates were then suspended in a sample buffer, separated on 8% SDS-PAGE, transferred to polyvinylidine difluoride membrane, and detected by immunoblot analysis, as described above. […]

NF-κB = assay: TNF-α-induced NF-κB-Luc activity; type: cell-based; settings: TNF-α 10 ng ml−1
Experimental: as §1

B1: siCYLD: RNA-mediated interference for downregulating CYLD expression using pSuper-CYLD, SEQ ID NO:13 (nucleic acid)
chain: GATCCCCGAGCTACTGAGGACAGAAATTCAAGAGATTTCTGTCCTCAGTAGCTCTTTTTGGAAA
modifications: expressed from pSuper vector
PAI-1
  TGF-α-responsive PAI-1 promoter activity: markedly enhanced
PAI-1; TGF-β stimulated
  PAI-1 messenger RNA: markedly enhanced
TGF-β-signalling; TβRI-deficient R1B cells
  WT-Smad3-induced SBE-Luc activation: markedly enhanced
TGF-β-signalling; TβRII-deficient DR26 cells
  constitutively active (C/A)-TβRI-induced SBE-Luc activity: markedly enhanced
Akt
  S. pneumoniae-induced Akt ubiquitination: markedly enhanced
NF-κB
  TNF-α-induced activation of NF-κB-Luc activity: greatly enhanced
